The record followed here is the supplement of paper PMC10567573.

This data set in a line: protein stability index of a GFP-peptide fusion (GPS, HEK-293T) (PSI 1-6); higher = more stable. The note with it: c terminus: a fixed tail appended.

± gives the standard deviation.
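Also: 24-mer peptide tiles fused after GFP, lentivirally expressed, FACS-sorted into six equal bins by GFP/DsRed ratio, decoded by Illumina sequencing, PSI is the read-weighted mean bin number.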

For the sequence GKDVATQILEGELFDFDLEVKPVL [RSPH3], the protein stability index is, setting by setting: (treatment: DMSO) 3.79 ± 0.087; (treatment: MLN4924 1 uM, 8 h) 3.81 ± 0.46.

In the case of GLAKCNGLSHSHDLSMDGLFGTIA [RIPK4], the protein stability index reads like this: (treatment: DMSO) 2.47 ± 0.43; (treatment: MLN4924 1 uM, 8 h) 2.38 ± 0.13.

Turning to GLAYDRKKVSKAAILARIKRTGDG [SCD], the protein stability index by setting is: (treatment: DMSO) 3.27 ± 0.24; (treatment: MLN4924 1 uM, 8 h) 3.63 ± 0.35.

For GLGAGFGGGFAGGDGLLVGSEKVT [KRT16], the protein stability index (treatment: DMSO) was 3.98 ± 0.11 and the protein stability index (treatment: MLN4924 1 uM, 8 h) is 4.081 ± 0.035.

GLSQGLVDREKGLSAEPGWQAKRE [CHGA]: the protein stability index was 4.92 ± 0.29 (treatment: DMSO) and 4.84 ± 0.4 (treatment: MLN4924 1 uM, 8 h).

As for GLVDFRDVALALAALDGGRSLEEL [LPCAT4], the protein stability index stood at 2.51 ± 0.34 (treatment: DMSO) and 3.17 ± 0.33 (treatment: MLN4924 1 uM, 8 h).

Consider GPAGGLADLSSGSSGEDDDFKSCP [PWWP2B], for which the protein stability index by setting is: (treatment: DMSO) 5.43 ± 0.22; (treatment: MLN4924 1 uM, 8 h) 5.45 ± 0.26.

In the case of GPDDSLWDKHACPAYVGPEILSSR [TRIB3], the protein stability index amounted to 3.56 ± 0.25 (treatment: DMSO) and 3.54 ± 0.33 (treatment: MLN4924 1 uM, 8 h).

For GPEDLSYQIYDVSGESNSAVSTED [LARP4], the protein stability index by setting is: (treatment: DMSO) 5.39 ± 0.17; (treatment: MLN4924 1 uM, 8 h) 5.44 ± 0.13.

In the case of GPESPPPPYSRLSPRDEYKPLDLS [SMAD6], the protein stability index is, setting by setting: (treatment: DMSO) 4.67 ± 0.15; (treatment: MLN4924 1 uM, 8 h) 4.78 ± 0.2.

With GPFGVNHGVELHSDVIEYAKQKLD [PCMTD2], the protein stability index amounted to 3.94 ± 0.6 (treatment: DMSO) and 4.28 ± 0.25 (treatment: MLN4924 1 uM, 8 h).

Regarding GPGIVGNVLVDPSARIGQNCSIGP [GMPPB], the protein stability index reads like this: (treatment: DMSO) 3.74 ± 0.32; (treatment: MLN4924 1 uM, 8 h) 3.81 ± 0.21.

With GPHPKSKIENGYPLHAPEAYFPYF [CDC14A], the protein stability index is, setting by setting: (treatment: DMSO) 2.53 ± 0.21; (treatment: MLN4924 1 uM, 8 h) 2.69 ± 0.13.

Consider GPILQKDYVQLENQWETPPEDLQT [ZNF449], for which the protein stability index is 4.94 ± 0.11 (treatment: DMSO) and 5 ± 0.28 (treatment: MLN4924 1 uM, 8 h).

For GPPGSPGRAGAVGTPGERGPPGPP [EMID1], the protein stability index reads like this: (treatment: DMSO) 5.32 ± 0.84; (treatment: MLN4924 1 uM, 8 h) 4.81 ± 0.84.

For the sequence GPRRLVSCLSSQSSALSQSGGGST [SPACA3], the protein stability index is, setting by setting: (treatment: DMSO) 3.81 ± 0.22; (treatment: MLN4924 1 uM, 8 h) 4 ± 0.19.

In the case of GQLYAMELQGFWMDIGQPKDFLTG [GMPPB], the protein stability index is, setting by setting: (treatment: DMSO) 2.01 ± 0.47; (treatment: MLN4924 1 uM, 8 h) 1.92 ± 0.13.

Regarding GRKFLQKHLNASNPTEPATIIFTA [TOR1AIP2], the protein stability index by setting is: (treatment: DMSO) 2.35 ± 0.36; (treatment: MLN4924 1 uM, 8 h) 2.13 ± 0.32.

Regarding GRKKYDIDPRNGIPKLTPGDNPYM [SPATS1], the protein stability index turned out to be 3.57 ± 0.18 (treatment: DMSO) and 3.71 ± 0.32 (treatment: MLN4924 1 uM, 8 h).

With GRNDLQQWIEVDARRLTRFTGVIT [CPXM2], the protein stability index runs as follows: (treatment: DMSO) 2.43 ± 0.062; (treatment: MLN4924 1 uM, 8 h) 2.56 ± 0.12.

In the case of GRRCKKCTEGPIDLVFVIDGSKSL [MATN2], the protein stability index came out at 2.06 ± 0.35 (treatment: DMSO) and 2.41 ± 0.44 (treatment: MLN4924 1 uM, 8 h).

In turn, GRRLKSPQAPDPEEEENRDSQQPG [FANCE] registered a protein stability index (treatment: DMSO) of 5.44 ± 0.25 and a protein stability index (treatment: MLN4924 1 uM, 8 h) of 5.67 ± 0.27.

Take GRRYEAVKWMVVFAIGVCTGLVGL [CLCN6]: the protein stability index by setting is: (treatment: DMSO) 3.33 ± 0.1; (treatment: MLN4924 1 uM, 8 h) 3.2 ± 0.092.

Consider GSAGGLGSTLGGSSYSSCYSFGSG [KRT17], for which the protein stability index came to 3.29 ± 0.13 (treatment: DMSO) and 3.43 ± 0.33 (treatment: MLN4924 1 uM, 8 h).

For the sequence GSILQFNPEVGIFVSIAQSEQESL [SMG5], the protein stability index was found to be 3.07 ± 0.38 (treatment: DMSO) and 2.92 ± 0.18 (treatment: MLN4924 1 uM, 8 h).

In the case of GSQPNSGLALESSSGLQDVTGPDN [NFE2L1], the protein stability index is, setting by setting: (treatment: DMSO) 5.45 ± 0.21; (treatment: MLN4924 1 uM, 8 h) 5.44 ± 0.3.

Sequence GSVALGPVCPTVCPPGGIHQVTVN [KRT71] displayed a protein stability index (treatment: DMSO) of 3.55 ± 0.34 and a protein stability index (treatment: MLN4924 1 uM, 8 h) of 3.52 ± 0.28.

Regarding GTEQAPYGMQTQNYPKGGLLDSMC [ETS2], the protein stability index amounted to 3.59 ± 0.17 (treatment: DMSO) and 3.84 ± 0.4 (treatment: MLN4924 1 uM, 8 h).

For the sequence GVGGWRDYGVDPSQFSGTLMRTCE [PPTC7], the protein stability index (treatment: DMSO) is 2.81 ± 0.36 and the protein stability index (treatment: MLN4924 1 uM, 8 h) came out at 3.28 ± 0.74.

For GVKISEQQAEKILKSMDKNGTMTI [SLC25A25], the protein stability index is 3.73 ± 0.13 (treatment: DMSO) and 3.7 ± 0.22 (treatment: MLN4924 1 uM, 8 h).

Turning to GVRSREDAQGSEMVTCKSEFYHDE [GAN], the protein stability index by setting is: (treatment: DMSO) 5.22 ± 0.12; (treatment: MLN4924 1 uM, 8 h) 5.08 ± 0.47.

For GWGDCVWLPYLYTLQGLYLVYHPV [DHCR7], the protein stability index worked out at 3.81 ± 0.74 (treatment: DMSO) and 3.25 ± 0.55 (treatment: MLN4924 1 uM, 8 h).

Turning to GYQLSDHTVGVLFNNGAHMSLLPD [PLK2], the protein stability index by setting is: (treatment: DMSO) 3.08 ± 0.2; (treatment: MLN4924 1 uM, 8 h) 3.14 ± 0.081.

Turning to HAFPVVTENRGNEKEFMKGNQLIS [CLCN6], the protein stability index runs as follows: (treatment: DMSO) 4.08 ± 0.078; (treatment: MLN4924 1 uM, 8 h) 4.12 ± 0.067.

HCNLFVYSSSKGSLRLCDMRAAAL [PPP2R2C]: the protein stability index (treatment: DMSO) turned out to be 2.6 ± 0.69 and the protein stability index (treatment: MLN4924 1 uM, 8 h) amounted to 2.63 ± 0.35.

HDIIKHPMDLSTVKRKMDGREYPD [BRD3]: the protein stability index amounted to 5.02 ± 0.19 (treatment: DMSO) and 5.1 ± 0.11 (treatment: MLN4924 1 uM, 8 h).
